For 9 molecules, Fold/wt and IC50 results are on record in patent US20090048164A1.

Experiment in all cases: competition phage ELISA
Test [1] deals with mouse Mcl-1 with truncations of 151 amino acid residues at its N-terminus and 23 residues at its C-terminus (mouse) (UniProt P97287).
Test [2] concerns the target Recombinant human Bcl-xL with a 25 amino acid truncation of its C-terminus (human) (UniProt Q07817).
For test [3] the target is unchanged. The source holds these as a separate data set.

Where two headings read alike, the source gives them in different places.

Chain of Recombinant human Bcl-xL with a 25 amino acid truncation of its C-terminus (human) (Q07817 1-208): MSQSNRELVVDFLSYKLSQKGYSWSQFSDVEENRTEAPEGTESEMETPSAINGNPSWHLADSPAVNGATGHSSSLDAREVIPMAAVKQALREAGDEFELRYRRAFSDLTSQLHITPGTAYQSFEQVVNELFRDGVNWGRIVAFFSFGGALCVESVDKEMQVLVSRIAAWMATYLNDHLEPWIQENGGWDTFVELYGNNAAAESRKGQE
Chain of mouse Mcl-1 with truncations of 151 amino acid residues at its N-terminus and 23 residues at its C-terminus (mouse) (P97287 152-308): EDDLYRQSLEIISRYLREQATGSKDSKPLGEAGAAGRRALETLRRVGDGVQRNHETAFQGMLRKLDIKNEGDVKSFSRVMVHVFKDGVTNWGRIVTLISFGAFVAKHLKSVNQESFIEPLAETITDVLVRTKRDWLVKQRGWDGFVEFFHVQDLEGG

For PSSTMGQVGRQLAIIGDDIARRYDSE [Bak BH3 N20A, phage-displayed], the Fold/wt in test [1] amounted to 1 fold; in test [2], 2 fold. Also, the IC50 in test [1] was 23 nM; in test [2], 111 nM.
Take PSSTMGQVGRQLAIIGDDINRRYDSA [Bak BH3 E26A, phage-displayed]: the Fold/wt in test [1] is less than 1 fold; in test [2], 1 fold. Further, the results for the IC50 in test [1] and in test [2] were 10 nM and 29 nM, respectively.
In test [1], PSSTMGQVGRQLAIIGDDINARYDSE [Bak BH3 R21A, phage-displayed] showed a Fold/wt of 1 fold and a half-inhibitory concentration (IC50) of 17 nM. For the same molecule, in test [2], the Fold/wt is 2 fold and the IC50 came to 87 nM.
On to PSSTMGQVGRQLAIIGDDINRRYDSE [Bak BH3 wild type, phage-displayed], for which, in test [1], the Fold/wt was 1 fold and the 50% inhibitory concentration (IC50) is 21 nM. Besides, in test [2], the Fold/wt worked out at 1 fold and the IC50 was 49 nM.
For PSSTMGQVGRQLAIIGDDINRAYDSE [Bak BH3 R22A, phage-displayed], in test [1], the Fold/wt is 1 fold and the IC50 turned out to be 16 nM. Also, in test [2], the Fold/wt was found to be 1 fold and the IC50 is 37 nM.
Regarding NLWAAQRYGRELRRMSDEFVDSFKKG [Bad BH3 wild type, phage-displayed], in test [2], the Fold/wt came to 1 fold and the IC50 worked out at 2 nM. Moreover, the concentration for half-maximal inhibition (IC50) in test [3] came to 1 nM.
Consider PSSTMGQVGRQLAIIGDDINRRADSE [Bak BH3 Y23A, phage-displayed], for which, in test [1], the Fold/wt was 6 fold and the half-maximal inhibitory concentration (IC50) was 117 nM. Also, in test [2], the Fold/wt amounted to 1 fold and the half-maximal inhibitory concentration (IC50) turned out to be 52 nM.
Take PSSTMGQVGRQLAIIGDDINRRYASE [Bak BH3 D24A, phage-displayed]: the Fold/wt in test [1] is less than 1 fold; in test [2] it was 1 fold. Besides, the 50% inhibitory concentration (IC50) amounted to 9 nM in test [1] and 30 nM in test [2].
On to PSSTMGQVGRQLAIIGDDINRRYDAE [Bak BH3 S25A, phage-displayed], for which the Fold/wt in test [1] and in test [2] was 1 fold each time. For the same molecule, the IC50 came to 18 nM in test [1] and 31 nM in test [2].
